Measured values: PMC9205888, “Efficient discrimination against RNA-containing primers by human DNA polymerase ε”

B1: D11 template:primer (dsDNA)
DNA 1: AATACATAAGCGCTCCAGGCAAT
DNA 2: GCCTGGAGCGC
modifications: primer 3'-terminal 2',3'-dideoxy-C
B2: R11 template:primer (DNA:RNA)
DNA: AATACATAAGCGCTCCAGGCAAT
RNA: GCCUGGAGCGC
modifications: RNA primer
B3: D10-R1 template:primer (mixed)
DNA 1: AATACATAAGCGCTCCAGGCAAT
DNA 2: GCCTGGAGCGC
modifications: primer nt 1-10 DNA, nt 11 3'-deoxy-C (2'-OH)
B4: R8-D3 template:primer (mixed)
DNA: AATACATAAGCGCTCCAGGCAAT
RNA: GCCUGGAGCGC
modifications: primer nt 1-8 RNA, nt 9-11 DNA, 3' ddC
B5: R10-D1 template:primer (mixed)
DNA: AATACATAAGCGCTCCAGGCAAT
RNA: GCCUGGAGCGC
modifications: primer nt 1-10 RNA, nt 11 2',3'-dideoxy-C
B6: EMSA D15 template:primer (dsDNA)
DNA 1: ATTATGGCAGCTCGGAGTCC
DNA 2: GGACTCCGAGCTGCC
B7: R6-D5 template:primer (mixed)
DNA: AATACATAAGCGCTCCAGGCAAT
RNA: GCCUGGAGCGC
modifications: primer nt 1-6 RNA, nt 7-11 DNA, 3' ddC
B8: R4-D7 template:primer (mixed)
DNA: AATACATAAGCGCTCCAGGCAAT
RNA: GCCUGGAGCGC
modifications: primer nt 1-4 RNA, nt 5-11 DNA, 3' ddC

What was measured:
[1] = target: T1, hPolεCD (DNA polymerase ε catalytic domain, exo-) (Homo sapiens, UniProt Q07864 27-1172, D275N;E277Q;del185-209); test: BLI; 100 mM NaCl, no dTTP/Mg2+; BLI (Octet K2): 30 mM Tris-Hepes pH 7.8, 100-150 mM NaCl, 2 mM TCEP, 0.002% Tween 20, 23 °C; EMSA: 20 mM Tris-Hepes pH 7.8, 100 mM NaCl, 2% glycerol, 2 mM TCEP, 0.2 mg/mL BSA, room temperature; settings: protein: recombinant; tags: none in final protein (N-terminal His6-Sumo cleaved); label: 5' BiotinTEG on template; template 5' overhang 9 nt and 3' overhang 3 nt
[2] = target: T1, hPolεCD (DNA polymerase ε catalytic …); test: BLI; 125 mM NaCl, no dTTP/Mg2+; BLI (Octet K2): 30 mM Tris-Hepes pH 7.8, 100-150 mM NaCl, 2 mM TCEP, 0.002% Tween 20, 23 °C; EMSA: 20 mM Tris-Hepes pH 7.8, 100 mM NaCl, 2% glycerol, 2 mM TCEP, 0.2 mg/mL BSA, room temperature; settings: protein: recombinant; tags: none in final protein (N-terminal His6-Sumo cleaved); label: 5' BiotinTEG on template; template 5' overhang 9 nt and 3' overhang 3 nt
[3] = target: T1, hPolεCD (DNA polymerase ε catalytic …); test: BLI; 150 mM NaCl, no dTTP/Mg2+; BLI (Octet K2): 30 mM Tris-Hepes pH 7.8, 100-150 mM NaCl, 2 mM TCEP, 0.002% Tween 20, 23 °C; EMSA: 20 mM Tris-Hepes pH 7.8, 100 mM NaCl, 2% glycerol, 2 mM TCEP, 0.2 mg/mL BSA, room temperature; settings: protein: recombinant; tags: none in final protein (N-terminal His6-Sumo cleaved); label: 5' BiotinTEG on template; template 5' overhang 9 nt and 3' overhang 3 nt
[4] = target: T1, hPolεCD (DNA polymerase ε catalytic …); test: BLI; 100 mM NaCl, 50 µM dTTP, 5 mM Mg2+; BLI (Octet K2): 30 mM Tris-Hepes pH 7.8, 100-150 mM NaCl, 2 mM TCEP, 0.002% Tween 20, 23 °C; EMSA: 20 mM Tris-Hepes pH 7.8, 100 mM NaCl, 2% glycerol, 2 mM TCEP, 0.2 mg/mL BSA, room temperature; settings: protein: recombinant; tags: none in final protein (N-terminal His6-Sumo cleaved); label: 5' BiotinTEG on template; template 5' overhang 9 nt and 3' overhang 3 nt
[5] = target: T1, hPolεCD (DNA polymerase ε catalytic …); test: EMSA; 100 mM NaCl, 0.5 µM DNA; active fraction titration (55.4 ± 4.3%); BLI (Octet K2): 30 mM Tris-Hepes pH 7.8, 100-150 mM NaCl, 2 mM TCEP, 0.002% Tween 20, 23 °C; EMSA: 20 mM Tris-Hepes pH 7.8, 100 mM NaCl, 2% glycerol, 2 mM TCEP, 0.2 mg/mL BSA, room temperature; settings: protein: recombinant; tags: none in final protein (N-terminal His6-Sumo cleaved); label: 5' Cy3 on primer; template 5' overhang 5 nt

T1 sequence (Q07864 other isoform, or with tags, fused parts or gaps D275N;E277Q;del185-209): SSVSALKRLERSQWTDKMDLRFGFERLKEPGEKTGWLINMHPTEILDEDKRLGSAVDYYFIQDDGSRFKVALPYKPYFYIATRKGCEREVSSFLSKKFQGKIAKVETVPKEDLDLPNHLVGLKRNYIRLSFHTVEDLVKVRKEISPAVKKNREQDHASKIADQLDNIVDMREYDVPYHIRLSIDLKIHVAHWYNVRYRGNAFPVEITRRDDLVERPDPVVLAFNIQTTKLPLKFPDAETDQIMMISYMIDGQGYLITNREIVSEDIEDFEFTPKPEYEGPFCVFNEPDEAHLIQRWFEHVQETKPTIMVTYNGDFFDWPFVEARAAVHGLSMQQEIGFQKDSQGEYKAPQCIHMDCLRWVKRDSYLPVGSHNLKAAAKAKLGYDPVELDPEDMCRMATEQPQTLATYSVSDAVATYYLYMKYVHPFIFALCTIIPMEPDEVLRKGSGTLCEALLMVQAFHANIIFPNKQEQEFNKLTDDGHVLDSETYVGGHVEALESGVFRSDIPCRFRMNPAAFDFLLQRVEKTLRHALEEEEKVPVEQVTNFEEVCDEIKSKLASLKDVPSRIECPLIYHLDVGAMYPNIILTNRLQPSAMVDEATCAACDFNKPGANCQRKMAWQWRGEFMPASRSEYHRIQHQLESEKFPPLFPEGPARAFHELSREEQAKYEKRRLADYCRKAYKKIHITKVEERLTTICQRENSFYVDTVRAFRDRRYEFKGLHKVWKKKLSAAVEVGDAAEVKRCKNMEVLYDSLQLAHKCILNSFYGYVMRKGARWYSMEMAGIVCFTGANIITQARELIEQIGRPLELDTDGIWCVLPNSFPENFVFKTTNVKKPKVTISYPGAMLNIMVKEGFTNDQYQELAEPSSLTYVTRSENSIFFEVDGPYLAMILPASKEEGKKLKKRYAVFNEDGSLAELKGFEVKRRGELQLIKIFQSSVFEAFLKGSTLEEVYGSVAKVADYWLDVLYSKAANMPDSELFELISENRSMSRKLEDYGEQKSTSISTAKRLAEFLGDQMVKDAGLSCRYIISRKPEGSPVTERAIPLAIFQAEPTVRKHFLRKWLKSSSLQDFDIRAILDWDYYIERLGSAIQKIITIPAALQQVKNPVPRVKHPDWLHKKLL

Binder	Kd [1] [nM]	also measured
B1	61.4 ± 12	Kd [2]: 532 ± 53 nM; Kd [3]: 1520 ± 91 nM; Kd [4]: 120 ± 11 nM
B2	65.8 ± 8.8	
B3	45.6 ± 6.1	
B4	62.5 ± 6.1	
B5	73 ± 14	
B6		binding result [5]: binds
B7	69.8 ± 6.4	
B8	58.6 ± 1.3	Kd [4]: 83 ± 3.3 nM
